Here are results for 3 molecules from article PMC11246235 (Cell, 2024).

Read-outs that look alike come from different tables or passages of the source.

The labels stand for the following.
B1: Stn1 (natural protein, human, UniProt Q9H668 1-368, looked up)
chain: MQPGSSRCEEETPSLLWGLDPVFLAFAKLYIRDILDMKESRQVPGVFLYNGHPIKQVDVLGTVIGVRERDAFYSYGVDDSTGVINCICWKKLNTESVSAAPSAARELSLTSQLKKLQETIEQKTKIEIGDTIRVRGSIRTYREEREIHATTYYKVDDPVWNIQIARMLELPTIYRKVYDQPFHSSALEKEEALSNPGALDLPSLTSLLSEKAKEFLMENRVQSFYQQELEMVESLLSLANQPVIHSASSDQVNFKKDTTSKAIHSIFKNAIQLLQEKGLVFQKDDGFDNLYYVTREDKDLHRKIHRIIQQDCQKPNHMEKGCHFLHILACARLSIRPGLSEAVLQQVLELLEDQSDIVSTMEHYYTAF

Common to all, as to assay: cryo-EM structure
Test [1] concerns the target T1, Ctc1 (His6-MBP-Ctc1) (human, UniProt Q2NKJ3 1-1217).
T1 sequence (looked up): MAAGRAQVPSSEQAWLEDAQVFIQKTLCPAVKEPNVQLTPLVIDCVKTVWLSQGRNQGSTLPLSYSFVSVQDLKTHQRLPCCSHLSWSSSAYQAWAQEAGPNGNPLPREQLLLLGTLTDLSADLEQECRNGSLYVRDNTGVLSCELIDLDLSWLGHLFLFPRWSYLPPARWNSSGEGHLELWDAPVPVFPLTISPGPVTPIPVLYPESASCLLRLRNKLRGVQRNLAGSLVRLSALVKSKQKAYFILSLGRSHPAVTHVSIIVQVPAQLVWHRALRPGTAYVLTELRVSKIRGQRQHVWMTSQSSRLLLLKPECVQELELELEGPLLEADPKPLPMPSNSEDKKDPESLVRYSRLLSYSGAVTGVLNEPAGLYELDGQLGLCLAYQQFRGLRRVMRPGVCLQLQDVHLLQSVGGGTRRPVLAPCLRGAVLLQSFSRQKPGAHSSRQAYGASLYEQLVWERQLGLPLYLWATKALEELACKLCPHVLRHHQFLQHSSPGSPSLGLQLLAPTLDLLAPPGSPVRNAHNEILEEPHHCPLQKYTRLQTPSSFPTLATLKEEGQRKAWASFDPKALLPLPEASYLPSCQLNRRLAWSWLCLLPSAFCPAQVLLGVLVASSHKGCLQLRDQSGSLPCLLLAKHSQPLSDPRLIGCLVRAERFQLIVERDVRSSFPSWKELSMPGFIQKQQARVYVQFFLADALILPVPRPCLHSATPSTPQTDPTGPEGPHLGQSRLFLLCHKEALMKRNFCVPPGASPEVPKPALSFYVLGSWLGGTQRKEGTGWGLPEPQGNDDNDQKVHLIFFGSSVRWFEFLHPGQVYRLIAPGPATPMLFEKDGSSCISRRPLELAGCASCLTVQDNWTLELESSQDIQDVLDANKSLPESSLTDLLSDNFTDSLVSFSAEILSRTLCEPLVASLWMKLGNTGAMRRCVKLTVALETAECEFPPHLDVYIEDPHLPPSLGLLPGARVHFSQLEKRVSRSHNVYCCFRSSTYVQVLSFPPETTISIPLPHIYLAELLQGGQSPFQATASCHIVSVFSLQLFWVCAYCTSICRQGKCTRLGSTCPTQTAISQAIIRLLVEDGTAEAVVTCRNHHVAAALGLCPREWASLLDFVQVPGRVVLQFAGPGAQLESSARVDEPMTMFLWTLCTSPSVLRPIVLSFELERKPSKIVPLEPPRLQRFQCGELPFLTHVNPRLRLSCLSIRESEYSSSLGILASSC

The target of the test “Stn1” is B1.
Test [2] has as its target T1, Ctc1 (His6-MBP-Ctc1). The source holds these as a separate data set.

Regarding B1, in the test with Ctc1 (His6-MBP-Ctc1) [1], the binding result is “binds”.

B2: Ten1 (natural protein, human, UniProt Q86WV5 1-123, looked up)
chain: MMLPKPGTYYLPWEVSAGQVPDGSTLRTFGRLCLYDMIQSRVTLMAQHGSDQHQVLVCTKLVEPFHAQVGSLYIVLGELQHQQDRGSVVKARVLTCVEGMNLPLLEQAIREQRLYKQERGGSQ
For B2, the binding result in the test with Stn1 is “binds”.

B3: POT1(ESDL) (natural protein, human, UniProt Q9NUX5 1-634, looked up)
chain: MSLVPATNYIYTPLNQLKGGTIVNVYGVVKFFKPPYLSKGTDYCSVVTIVDQTNVKLTCLLFSGNYEALPIIYKNGDIVRFHRLKIQVYKKETQGITSSGFASLTFEGTLGAPIIPRTSSKYFNFTTEDHKMVEALRVWASTHMSPSWTLLKLCDVQPMQYFDLTCQLLGKAEVDGASFLLKVWDGTRTPFPSWRVLIQDLVLEGDLSHIHRLQNLTIDILVYDNHVHVARSLKVGSFLRIYSLHTKLQSMNSENQTMLSLEFHLHGGTSYGRGIRVLPESNSDVDQLKKDLESANLTANQHSDVICQSEPDDSFPSSGSESDLVSLYEVERCQQLSATILTDHQYLERTPLCAILKQKAPQQYRIRAKLRSYKPRRLFQSVKLHCPKCHLLQEVPHEGDLDIIFQDGATKTPDVKLQNTSLYDSKIWTTKNQKGRKVAVHFVKNNGILPLSNECLLLIEGGTLSEICKLSNKFNSVIPVRSGHEDLELLDLSAPFLIQGTIHHYGCKQCSSLRSIQNLNSLVDKTSWIPSSVAEALGIVPLQYVFVMTFTLDDGTGVLEAYLMDSDKFFQIPASEVLMDDDLQKSVDMIMDMFCPPGIKIDAYPWLECFIKSYNVTNGTDNQICYQIFDTTVAEDVI
modifications: phosphorylated in insect cells (sites not determined)
Turning to B3, in the test with Ctc1 (His6-MBP-Ctc1) [2], the binding result is “binds”.
